From PMC4472604

T1: 6TM/E11 6TM/E11 splice variant (Mus musculus), P42866
T1 chain: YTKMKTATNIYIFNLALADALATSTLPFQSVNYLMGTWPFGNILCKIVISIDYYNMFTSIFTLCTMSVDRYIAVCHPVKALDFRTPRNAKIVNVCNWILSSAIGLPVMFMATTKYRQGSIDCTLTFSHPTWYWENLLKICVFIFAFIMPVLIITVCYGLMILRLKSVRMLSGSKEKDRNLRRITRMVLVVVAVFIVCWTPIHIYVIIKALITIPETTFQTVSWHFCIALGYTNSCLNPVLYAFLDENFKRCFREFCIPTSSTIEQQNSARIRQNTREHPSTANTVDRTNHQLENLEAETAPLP

T2: KOR (Mus musculus), P33534
T2 chain: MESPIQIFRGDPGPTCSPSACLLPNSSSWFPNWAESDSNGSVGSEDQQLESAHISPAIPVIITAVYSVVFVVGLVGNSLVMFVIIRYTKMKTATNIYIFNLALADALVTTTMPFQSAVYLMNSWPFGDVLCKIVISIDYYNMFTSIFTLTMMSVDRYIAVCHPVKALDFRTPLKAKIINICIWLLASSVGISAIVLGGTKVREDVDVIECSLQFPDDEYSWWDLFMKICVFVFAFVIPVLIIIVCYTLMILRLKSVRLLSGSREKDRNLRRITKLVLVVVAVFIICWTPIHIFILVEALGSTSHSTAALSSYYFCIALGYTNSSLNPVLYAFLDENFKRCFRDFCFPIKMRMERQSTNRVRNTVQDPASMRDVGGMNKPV

T3: DOR (Mus musculus), P32300
T3 chain: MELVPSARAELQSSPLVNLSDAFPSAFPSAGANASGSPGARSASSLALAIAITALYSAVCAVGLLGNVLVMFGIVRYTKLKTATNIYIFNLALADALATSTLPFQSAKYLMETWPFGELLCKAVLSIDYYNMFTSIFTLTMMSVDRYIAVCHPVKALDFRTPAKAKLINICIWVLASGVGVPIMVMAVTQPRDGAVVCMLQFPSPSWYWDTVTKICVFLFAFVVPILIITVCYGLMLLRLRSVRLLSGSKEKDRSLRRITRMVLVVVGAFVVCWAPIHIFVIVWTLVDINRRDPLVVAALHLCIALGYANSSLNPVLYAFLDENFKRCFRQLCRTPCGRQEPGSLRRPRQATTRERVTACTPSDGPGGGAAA


What was measured:
Assay in all cases: radioligand
Details in all cases: modification not given
[1] = target: T1, 6TM/E11 6TM/E11 splice variant (Mus …)
[2] = target: T2, KOR (Mus musculus), P33534
[3] = target: MOR (Mus musculus), P42866
[4] = target: T3, DOR (Mus musculus), P32300

Sequence of MOR (Mus musculus), P42866 (P42866 whole entry): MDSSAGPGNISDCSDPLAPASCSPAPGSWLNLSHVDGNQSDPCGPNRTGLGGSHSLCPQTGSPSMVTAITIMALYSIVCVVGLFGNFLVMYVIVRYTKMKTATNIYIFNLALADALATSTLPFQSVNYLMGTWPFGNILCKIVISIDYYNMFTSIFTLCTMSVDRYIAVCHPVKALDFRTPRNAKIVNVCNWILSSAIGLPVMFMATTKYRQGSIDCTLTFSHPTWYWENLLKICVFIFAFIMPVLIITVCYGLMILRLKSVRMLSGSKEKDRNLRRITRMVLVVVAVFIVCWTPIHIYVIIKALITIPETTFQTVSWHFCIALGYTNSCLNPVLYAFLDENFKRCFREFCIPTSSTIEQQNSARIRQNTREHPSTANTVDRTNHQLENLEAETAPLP

Row | Binder | Ki [1] | Ki [2] | Ki [3] | Kd [4]
1 | YAFEIIG [peptide 1] | > 1 µM | > 1 µM | > 1 µM | 
2 | YAFEVVG [[D-Ala2]deltorphin II] | > 1 µM | > 1 µM | > 1 µM | 
3 | YAFEIIG [[125I]-3 (125I-GATE3-8)] |  |  |  | 0.00011 µM
